Measurements taken from publication PMC9175492.

B1: HiBit, an 11-residue peptide derived from NanoLuc (peptide)
peptide: VSGWRLFKKIS
B2: cyclic peptidyl inhibitor P1, Cyclo(…) (peptide)
peptide: GQLDPETGEFL
modifications: here or on the partner: cyclic peptide

Experiments:
[1] = target: LgBit, an 18-kDa subunit of NanoLuc; assay: split reporter
[2] = target: Kelch domain of Kelch-like ECH-associated protein 1 (Keap1); assay: fluorescence polarisation

Binder	fold induction of luminescence at 10 μM [1] [fold]	IC50 [2] [nM]
B1	20	–
B2	–	14
